Experimental data reported in patent publication US10646540B2, “Peptide inhibitors of twist” (City of Hope, priority 2016, dated 2020).
“Also recorded” adds a separate entry of the source. Ends that are not written are not given here. Peptide text beside a SMILES is read from it. * marks the point of attachment. Cbz = O=C(OCc1ccccc1)*

Key:
[1] = biological target: T1, TWIST1-RELA binding (Homo sapiens, UniProt Q15672); assay: Co-immunoprecipitation with RELA pulldown in transfected HEK-293 cells; details: increasing GFP-WR expression, total GFP held constant with control GFP
T1 construct: The cloning of TWIST1 into the pcDNA4-MycHis vector has been described previously [14]; The wild type RELA gene was also cloned into pcDNA4-MycHis; expressed in transfected cells; host or cells: HEK-293
T1 sequence (Q15672 1-202): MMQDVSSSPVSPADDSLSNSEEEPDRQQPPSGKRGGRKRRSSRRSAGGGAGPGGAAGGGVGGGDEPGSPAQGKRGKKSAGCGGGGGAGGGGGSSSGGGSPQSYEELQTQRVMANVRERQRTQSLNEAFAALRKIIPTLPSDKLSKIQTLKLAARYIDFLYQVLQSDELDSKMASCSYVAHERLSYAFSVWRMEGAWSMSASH
Excerpt: (§1) In order to create a competitive inhibitor for TWIST1-RELA binding, the WR domain from TWIST1 was fused to GFP. To achieve this, PCR was used to amplify the final 63 nucleotides of the TWIST1 gene (including stop codon) and add 5′ XhoI and 3′ BamHI restriction sites. The PCR fragment and the pEGFP-C3 vector were subjected to XhoI-BamHI double digest (New England BioLabs, Ipswich, Mass.) and the two were ligated together. GFP lacking the WR domain was used as a control, and includes residues at the C-terminus encoded by the multiple cloning site of the vector. As a result, the molecular weights of the two GFP proteins are indistinguishable on a western blot. […]
(§2) HEK-293 cells were plated at 500,000 cells per well, in 2 mL normal medium, in a 6 well plate and allowed to adhere. […] Cell pellets were lysed in RIPA buffer, and protein concentration was determined by BCA Protein Assay (Thermo Fisher, Waltham, Mass.). […]
(§3) Protein was run on 4% stacking, 10% resolving polyacrylamide gels and transferred to PVDF membrane (GE Healthcare Bio-Sciences, Pittsburgh, Pa.) on a Trans-Blot SD Semi-Dry Transfer Cell (Bio-Rad, Hercules, Calif.). […] Protein was detected using FemtoGlow chemiluminescent substrate (Michigan Diagnostics, Royal Oak, Mich.) and the Pxi4 imager (Syngene, Frederick, Md.). Quantitation was performed using the accompanying GeneTools software.

[2] = biological target: T2, RELA (Homo sapiens, UniProt Q04206); assay: Co-immunoprecipitation with GFP pulldown in transfected HEK-293 cells; format: binding; details: data not shown
T2 construct: The wild type RELA gene was also cloned into pcDNA4-MycHis; expressed in transfected cells; host or cells: HEK-293
Excerpt: as §1, §2, §3

[3] = biological target: T3, TWIST1 (Homo sapiens, UniProt Q15672); assay: as above; format: binding; details: increasing GFP-WR expression
T3 construct: The cloning of TWIST1 into the pcDNA4-MycHis vector has been described previously [14]; expressed in transfected cells; host or cells: HEK-293
T3 sequence (Q15672 1-202): T1 sequence (Q15672 1-202)
Excerpt: as §1, §2, §3

[4] = tested on: IL-8 promoter; assay: Dual luciferase assay, firefly luciferase under control of the IL-8 promoter, in Ovcar4 cells; format: cell-based
Method: HEK-293 cells were grown in McCoy's 5A medium supplemented with 10% fetal bovine serum (FBS) and 1% penicillin/streptomycin (P/S). Ovcar4 cells were grown in RPMI medium with 10% FBS and 1% P/S. All cells were maintained at 37° C. and 90% humidity in a tissue culture incubator with 5% CO2 atmosphere. Cells were passaged every 2-4 days as they became confluent, using 0.25% trypsin. Where indicated, cells were transfected using 5 μL per well Lipofectamine 2000 (Life Technologies, Carlsbad, Calif.) in a total of 2 mL per well of OptiMEM low serum medium (Life Technologies). For proteasome inhibition studies, MG132 was added to cells in normal medium four hours after transfection and left on overnight. 5 μM was used for western studies, and 1 μM was used for luciferase assays. […]
Ovcar4 cells were plated at 50,000-75,000 cells per well, in 500 μL RPMI, in a 24 well plate and allowed to adhere overnight. […] The day after transfection, luciferase expression was quantified using the Dual Luciferase Assay kit (Promega, Madison, Wis.) according to the manufacturer instructions.
Western blots were quantified using GeneTools software. Data were graphed and analyzed in Microsoft Excel and GraphPad Prism 6, respectively. […] Luciferase assays were analyzed using one-way ANOVA with correction for multiple comparisons. […]

[5] = biological target: T3, TWIST1; assay: Cell fractionation and western blot of TWIST1 and GFP in HEK-293 cells; format: cell-based
Method: HEK-293 cells were grown in McCoy's 5A medium supplemented with 10% fetal bovine serum (FBS) and 1% penicillin/streptomycin (P/S). Ovcar4 cells were grown in RPMI medium with 10% FBS and 1% P/S. All cells were maintained at 37° C. and 90% humidity in a tissue culture incubator with 5% CO2 atmosphere. Cells were passaged every 2-4 days as they became confluent, using 0.25% trypsin. Where indicated, cells were transfected using 5 μL per well Lipofectamine 2000 (Life Technologies, Carlsbad, Calif.) in a total of 2 mL per well of OptiMEM low serum medium (Life Technologies). For proteasome inhibition studies, MG132 was added to cells in normal medium four hours after transfection and left on overnight. 5 μM was used for western studies, and 1 μM was used for luciferase assays.
as §1, with “blot. To achieve equal expression of GFP-WR compared to unmodified GFP, it was necessary to transfect cells with three-fold more GFP-WR plasmid versus GFP. A one to one ratio was sufficient for CoIP illustrated in FIG. 4C.” for “blot.”
as §3, with “Quantitation was performed using the accompanying GeneTools software.” left out

T2 sequence (Q04206 whole entry): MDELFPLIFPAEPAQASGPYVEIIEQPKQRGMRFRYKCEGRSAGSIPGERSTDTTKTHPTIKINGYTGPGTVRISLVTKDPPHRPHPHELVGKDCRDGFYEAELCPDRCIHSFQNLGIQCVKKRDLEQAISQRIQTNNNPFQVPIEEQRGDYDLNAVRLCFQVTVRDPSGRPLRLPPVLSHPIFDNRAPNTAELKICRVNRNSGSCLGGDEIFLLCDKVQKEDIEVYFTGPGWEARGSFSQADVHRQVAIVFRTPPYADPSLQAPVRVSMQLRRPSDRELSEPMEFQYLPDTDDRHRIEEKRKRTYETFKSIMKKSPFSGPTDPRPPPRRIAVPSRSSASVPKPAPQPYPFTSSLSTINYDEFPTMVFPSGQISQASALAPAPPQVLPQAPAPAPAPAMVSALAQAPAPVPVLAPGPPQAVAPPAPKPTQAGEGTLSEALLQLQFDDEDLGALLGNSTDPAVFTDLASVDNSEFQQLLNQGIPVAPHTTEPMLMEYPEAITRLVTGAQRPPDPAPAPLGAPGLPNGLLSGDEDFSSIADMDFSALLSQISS

RELA co-precipitated with GFP [2]	absolute levels of TWIST1 and GFP in cytoplasmic and nuclear fractions ([5]; increasing amount of GFP-WR transfected)	Compound	TWIST1 co-precipitated with RELA (TWIST1-RELA binding) [1]	TWIST1 co-precipitated with GFP [3]	IL-8 promoter driven FFluc expression (normalized to Renilla luciferase) ([4]; increasing dose of GFP-WR, Ovcar4 cells co-transfected with TWIST1 and RELA)	proportion of TWIST1 signal found in the cytoplasmic fraction ([5]; increasing GFP-WR transfection, western blot of fractionated cells)	IL-8 promoter activity (FFluc expression) after proteasome inhibition ([4]; MG132 1 μM overnight, cells expressing GFP-WR)	levels of TWIST1 and GFP in the cytoplasmic fraction after proteasome inhibition ([5]; MG132 5 μM overnight, cells expressing GFP-WR)
only trace amounts	decreased	GFP-WR: fusion protein of GFP and the 20 amino acid WR domain of TWIST1, expressed from pEGFP-C3 as competitive inhibitor of TWIST1-RELA binding (LELSYAFSVWRMEGAWSMSASH; also: fused to GFP)	reduced in a dose-dependent manner; also recorded: reduced in a dose dependent fashion	more TWIST1 co-precipitated; also recorded: co-precipitated to a greater degree	dose dependent drop; also recorded: dose-dependent reduction	slight increase; also recorded: mild increase	–	–
–	–	CC(C)C[C@@H](C=O)NC(=O)[C@H](CC(C)C)NC(=O)[C@H](CC(C)C)NC(=O)OCc1ccccc1 [MG132, reference compound] (Cbz-Leu-Leu-Leu-aldehyde)	–	–	–	–	increases; also recorded: partial rescue	partially rescue
